The values that follow come from PMC9304036 (Proceedings of the National Academy of Sciences of the …, 2022).

For assay [1], the target named is SARS-CoV-2 spike receptor-binding domain (RBD), residues 333 to 529, wild type, for crystallization (SARS-CoV-2 Wuhan-Hu-1 (QHD43416.1), UniProt P0DTC2). The experiment in a line: crystal structure. Conditions: both partners purified.
Assay [2] deals with SARS-CoV-2 RBD, ancestral (wild type), for biolayer interferometry (SARS-CoV-2 Wuhan-Hu-1 (ancestral), UniProt P0DTC2). As to the kind of experiment: BLI; Octet Red; […] (15 µg/mL) […] (AHC) biosensors; […]; 1x PBS pH 7.4, 0.01% BSA, 0.002% Tween 20; association 90 s, dissociation 90 s; 1:1 binding model. The conditions noted are these: both partners purified.

B1: ADG20 Fab (Fab, V domains shown)
VH: EVQLVESGGGLVKPGGSLRLSCAASGFTFSSYYMNWVRQAPGKGLEWVSSISEDGYSTYYPDSLKGRFTISRDSAKNSLYLQMNSLRADDTAVYYCARDFSGHTAWAGTGFEYWGQGTLVTVSS
VL: QPVLTQPPSVSGAPGQRITISCTGSSSNIGAGYDVHWYQQLPGTAPKLLIYGSSSRNSGVPDRFSGSKSGTSASLAITGLQAEDEADYYCQSYDSSLSVLYTFGTGTKVTVL
notes: also called ADG-2 (same Fab domain)
In the case of B1, the binding result in assay [1] is “binds”.

B2: ADG20 IgG (antibody, V domains shown)
VH: EVQLVESGGGLVKPGGSLRLSCAASGFTFSSYYMNWVRQAPGKGLEWVSSISEDGYSTYYPDSLKGRFTISRDSAKNSLYLQMNSLRADDTAVYYCARDFSGHTAWAGTGFEYWGQGTLVTVSS
VL: QPVLTQPPSVSGAPGQRITISCTGSSSNIGAGYDVHWYQQLPGTAPKLLIYGSSSRNSGVPDRFSGSKSGTSASLAITGLQAEDEADYYCQSYDSSLSVLYTFGTGTKVTVL
notes: copies: 2 + 2
For the molecule B2, the binding result in assay [2] is “binds”.

B3: ADI-55688 Fab (Fab, V domains shown)
VH: EVQLVESGGGLVKPGGSLRLSCAASGFTFSSYYMNWVRQAPGKGLEWVSSISSDGYNTYYPDSLKGRFTISRDSAKNSLYLQMNSLRADDTAVYYCARDFSGHTAVAGTGFEYWGQGTLVTVSS
VL: QPVLTQPPSVSGAPGQRITISCTGSSSNIGAGYDVHWYQQLPGTAPKLLIYGSSSRPSGVPDRFSGSKSGTSASLAITGLQAEDEADYYCQSYDSSLSVLYVFGTGTKVTVL
notes: also called parental antibody of ADG20
On to B3, for which, in assay [1], the binding result is given as “binds”.
